Legend:
[1] = molecular target: human recombinant HMGB1 protein (high-mobility group box-1) (human) (UniProt P09429); experiment: SPR; human recombinant HMGB1 immobilised on a CMDH chip (immobilisation buffer 10 mM S.A., pH 4.5); analytes flowed at 30 uL/min; running buffer PBS pH 7.4; association and dissociation 3 min each; room temperature; Reichert SR7500DC, Scrubber2
[2] = molecular target: human recombinant HMGB1 protein (high-mobility group box-1) (human) (UniProt P09429)

Chain of human recombinant HMGB1 protein (high-mobility group box-1) (human) (P09429 whole entry): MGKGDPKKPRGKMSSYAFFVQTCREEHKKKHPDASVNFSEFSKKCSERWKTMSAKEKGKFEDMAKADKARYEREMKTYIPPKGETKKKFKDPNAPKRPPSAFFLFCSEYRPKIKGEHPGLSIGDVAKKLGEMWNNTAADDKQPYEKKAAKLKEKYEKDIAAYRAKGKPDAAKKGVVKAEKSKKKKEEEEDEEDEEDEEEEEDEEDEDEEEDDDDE

Kd [1] [nM]	reduction of HUVEC proliferation in Transwell co-culture with U87MG (CCK-8, 24 h, 100 uM GL equivalent) [2] [%]	Substance
32.3	–	lactoferrin-glycyrrhizin conjugate Lf-GL (1:15)
595	–	lactoferrin-glycyrrhizin conjugate Lf-GL (1:4)
23.1	13	lactoferrin-glycyrrhizin conjugate Lf-GL (1:10)
165	8.2	lactoferrin human (Lf) (natural protein)

Reference: article PMC10200060, “Inhibition of DAMP actions in the tumoral microenvironment using lactoferrin-glycyrrhizin conjugate for glioblastoma therapy” (Biomaterials Research, 2023)
